Measured values published in IntAct's records for PubMed 17525731.

Key:
[1] = target: creb1_mouse Creb1 (UniProt Q01147)
[2] = target: Creb1, Q01147-1
[3] = target: creb1_mouse Creb1 (UniProt Q01147); remark: listed apart in the source

Sequence of Creb1, Q01147-1 (Q01147 other isoform, or with tags, fused parts or gaps): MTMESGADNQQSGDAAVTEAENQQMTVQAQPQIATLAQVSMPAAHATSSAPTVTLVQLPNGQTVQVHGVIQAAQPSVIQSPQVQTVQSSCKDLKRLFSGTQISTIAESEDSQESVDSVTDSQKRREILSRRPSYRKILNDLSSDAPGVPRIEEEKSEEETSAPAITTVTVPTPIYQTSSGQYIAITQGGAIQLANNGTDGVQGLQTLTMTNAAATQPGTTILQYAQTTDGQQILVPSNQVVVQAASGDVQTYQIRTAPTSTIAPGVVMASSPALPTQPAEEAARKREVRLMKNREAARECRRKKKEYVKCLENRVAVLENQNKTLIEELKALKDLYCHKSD
Sequence of creb1_mouse Creb1 (Q01147 whole entry): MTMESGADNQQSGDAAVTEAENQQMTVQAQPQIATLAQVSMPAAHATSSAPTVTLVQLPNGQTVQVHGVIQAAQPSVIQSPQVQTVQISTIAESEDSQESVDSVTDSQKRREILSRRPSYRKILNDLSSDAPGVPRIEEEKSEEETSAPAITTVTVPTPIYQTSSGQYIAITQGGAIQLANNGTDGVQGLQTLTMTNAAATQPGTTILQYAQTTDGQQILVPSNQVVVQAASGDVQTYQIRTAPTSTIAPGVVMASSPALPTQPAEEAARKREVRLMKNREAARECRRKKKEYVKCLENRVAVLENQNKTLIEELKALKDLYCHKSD

Row | Substance | effect of a mutation on the interaction [1] | effect of a mutation on the interaction [2] | effect of a mutation on the interaction [3]
1 | Histone acetyltransferase p300 (Homo sapiens), Q09472 A634Q | disrupting interaction |  | 
2 | Histone acetyltransferase p300 (Homo sapiens), Q09472 Y630A | disrupting interaction |  | 
3 | Histone acetyltransferase p300 (Homo sapiens), Q09472 Y638A | disrupting interaction |  | 
4 | Histone lysine acetyltransferase CREBBP (Mus musculus), P45481 A654Q |  | disrupting interaction | disrupting interaction
5 | Histone lysine acetyltransferase CREBBP (Mus musculus), P45481 Y650A |  | disrupting interaction | disrupting interaction
6 | Histone lysine acetyltransferase CREBBP (Mus musculus), P45481 Y658A |  | disrupting interaction | disrupting interaction
